From US8455447B2, “Modified therapeutic agents” (priority 2002, dated 2013)
Like-named read-outs stand apart in the source and are kept apart here. Ends that are not written are not given here.

B1: APT2439: Recombinant human CD59 (lacking the GPI anchor), with an amino-terminal methionine and a carboxy-terminal cysteine, expressed in E. coli (protein)
chain: MLQCYNCPNPTADCKTAVNCSSDFDACLITKAGLQVYNKCWKFEHCNFNDVTTRLRENELTYYCCKKDLCNFNEQLENC
B2: APT3280: disulphide conjugate of APT2439 and APT3146 (thiopyridylated bisMyr-KSSKSPSKKDDKKPGDC) (conjugate)
chain: MLQCYNCPNPTADCKTAVNCSSDFDACLITKAGLQVYNKCWKFEHCNFNDVTTRLRENELTYYCCKKDLCNFNEQLENC
peptide: KSSKSPSKKDDKKPGDC
B3: APT3073: disulphide conjugate of APT2439 and APT2258 (Myr-GSSKSPSKKDDKKPGDC (2-SPy)-NH2) (conjugate)
chain: MLQCYNCPNPTADCKTAVNCSSDFDACLITKAGLQVYNKCWKFEHCNFNDVTTRLRENELTYYCCKKDLCNFNEQLENC
peptide: GSSKSPSKKDDKKPGDC

How the values were obtained:
Type in all cases: cell-based
sheep erythrocytes [1] = test: Anti-haemolytic assay: classical pathway mediated haemolysis of sheep erythrocytes, absence of albumin; settings: No BSA; non-stick plates; Example 3; read-out: IH50 (the source's name)
Protocol: The Anti-complement activity of the modified SCR1-3 agents was measured by classical pathway mediated haemolysis of sheep erythrocytes.
Step 1—The Dilution Plate
7 wells of each of 9 lanes, missing the uppermost well, on a flat-bottomed microtitre plate were filled with 200 μL of diluent (0.100 M Hepes, 0.150 M NaCl, 0.100% gelatin, adding NaOH to pH 7.4).
Into the uppermost wells, the required volume of each test/control sample was aliquotted, immediately followed by enough diluent to make the total volume up to 300 μL, to ensure a final concentration of 1.2 μM.
Using a multichannel Gilson pipette, all 9 top wells were mixed and 100 μL were transferred from these wells to the corresponding wells in 2nd row. […]
After incubation the plates were centrifuged at 1600 rpm for 3 min and the Nescofilm removed. 150 μL of supernatant from each well of the two plates was then transferred into the corresponding wells of two new microtitre plates and the absorbance of each well measured at 405 nm using a plate reader.
% inhibition was calculated using the following formula:
[formula] wherein: • Ao=the mean value of the absorbances in lane 1 • Amax=the mean value of the absorbances in lane 2 • t=the mean of the two absorbance values for each sample at any given concentration. […]

sheep erythrocytes [2] = test: Anti-haemolytic assay: classical pathway mediated haemolysis of sheep erythrocytes, presence of bovine serum albumin; settings: 40 mg/ml BSA (fatty acid free); non-stick plates; Example 3; read-out: IH50 (the source's name)
Protocol: Anti-Complement Activity of Acylated Peptide/APT154 Conjugates in the Presence of Bovine Serum Albumin (BSA)
7 wells of each of 4 lanes, missing the uppermost well, on a flat-bottomed microtitre plate were filled with 200 μL of the BSA/diluent solution. Into the uppermost wells, the required volume each test/control sample (APT3328, APT33330, APT33331 and APT070) was aliquotted, immediately followed by enough BSA/diluent solution to make the total volume up to 300 μL, to ensure a final concentration of 1.2 μM.
These 1.2 μM wells were then diluted across a 3 log dilution gradient and the rest of the assay performed as for the peptide/APT154 conjugates. The BSA diluent solution was used instead of pure diluent except for the Ao lane of the reaction plate, for which pure diluent (50 μL) and the BSA/diluent solution (50 μL) were aliquotted. The whole assay was repeated.
[…] In the Ao lane of the reaction plate, for which pure diluent (50 μL) and the BSA/diluent solution (50 μL) were aliquotted.
Multiple anti-haemolytic assays were performed on the reaction mixture of more than one batch of APT3147, in the presence and absence of fatty acid free bovine serum albumin (BSA) at both 4 mg/ml and 40 mg/ml, on non-stick plates.

[3] = system: MAC formation on guinea pig erythrocytes; test: Reactive lysis system: inhibition of MAC formation on guinea pig erythrocytes; settings: for IC50: read-out: IH50 (concentration of protein required to achieve 50% inhibition of lysis)
Protocol: The ability of APT2439, APT3073 and APT3280 to inhibit MAC formation on guinea pig erythrocytes, was tested in a reactive lysis system. The effect of human albumin (HSA) on this activity was also investigated. Test samples were prepared at a range of concentrations in the presence or absence of 8 mg/ml fatty acid free HSA (Sigma, UK). 50 μL of these dilutions was added to 50 μL of a 5% suspension of guinea pig erythrocytes in PBS/0.1% gelatin, and incubated for 30 minutes at 37° C. 10 μL of human C5b6 complex (C5b6 was partially purified from acute phase serum) in PBS containing 15 mM EDTA and 0.1% gelatin, was added to the guinea pig erythrocyte suspension. 40 μL of normal human serum, diluted in PBS containing 15 mM EDTA and 0.1% gelatin was added as a source of C7, C8 and C9, and the suspension was incubated for 1 hour at 37 degrees Celsius. (The concentrations of C5b6 and normal human serum required to achieve about 80% lysis of guinea pig erythrocytes was pre-determined by titration.) The reaction mixtures were centrifuged for 5 minutes at 1000×g and the degree of haemolysis was determined by measuring the absorbance of the supernatant at 410 nm. To determine background lysis, a control reaction was prepared without serum. To determine maximal lysis, a control reaction containing no inhibitor (or test sample) was prepared. The percentage inhibition of haemolysis was determined for each protein at each concentration. An IH50 value (the concentration of protein required to achieve 50% inhibition of lysis) was determined for each protein in the presence and absence of HSA.

Row | Molecule | IC50 (sheep erythrocytes [1]) [nM] | IC50 (sheep erythrocytes [2]) [nM] | IC50 ([3]; Presence of HSA (2.7 mg/ml)) [nM] | concentrations required to achieve complete inhibition of haemolysis ([3]; absence of HSA) | IC50 ([3]; absence of HSA) [nM] | decrease in potency in the presence of HSA ([3]; presence of HSA) | increase in potency compared to APT2439 ([3]; absence of HSA) [log] | decrease in potency compared to its potency in the absence of HSA ([3]; presence of HSA, final concentration 2.7 mg/ml) [log]
1 | APT3147: bismyr-GSSKSPSKKKKKKPGDC conjugated to SCR1-3; SEQ ID NO: 26; two myristoyl groups (not fully specified (N-terminus); printed as bismyr-GSSKSPSKKKKKKPGDC; also: two myristoyl groups (bismyr-), places not given here, conjugated to SCR1-3) [bismyr-… conjugated to SCR1-3; two myristoyl groups] | 2.2 | 2.2 | – | – | – | – | – | –
2 | B1 | – | – | 400 | mM concentrations | 600 | did not demonstrate any decrease in potency | – | –
3 | B2 | – | – | 0.08 | – | 0.1 | did not demonstrate any decrease in potency | ~4 | –
4 | B3 | – | – | 6 | – | 0.8 | – | ~3 | 1
